From paper PMC11488661 (Science immunology, 2024)
Changes are numbered by the printed parent chain. Read-outs that look alike come from different tables or passages of the source.

B1: GT8-D36-13_CLK09 (antibody, V domains shown)
VH: QVQLVQSGAEVKKPGASVKVSCKASGYTFTGYYIHWVRQAPGQGLKWMGWINPNSGGTNYAQKFQGRVTMTRDTSISTAYLELSRLRSDDTAVYYCARVEGLWTFDIWGQGTMVTVSS
VL: DIQMTQSPSSLSASVGDRVTITCQASQDISNYLNWYQQKPGKAPKVLIYDASNLETGVPSRFSGSGSGTDFTFTISSLQSEDVATYYCQQYEFFGGGTTVEIK
B2: g5-D78-8_CLK09 (antibody, V domains shown)
VH: QVQLVQSGAEVKKPGVSVKVSCKASGYTFNGYYMHWVRQAPGQGLEWMGWINPNNGGINIARRFEDRVTMTRDTSITTAHMELSRLRSDDSAVYYCARVGGLWFGEKWTFDIWGQGTMVTVSS
VL: DIQMTQSPSSLSASVGDRVTITCQTSQDISTFLNWYQQRPGKAPKLLIYGACNLATGVPSRFSGSGSGTDFTFTISSLQPEDIATYYCQQYEFFGGGTKVEIK
B3: GT8-D36-21_CLK09 (antibody, V domains shown)
VH: B1 VH
VL: B1 VL with V46L, S76G, V83I, T99K
B4: GT8-D36-14_CLK09 (antibody, V domains shown)
VH: not shown
VL: B1 VL with V46L, S80P, V83I, T99K
B5: GT8-D36-3_CLK09 (antibody, V domains shown)
VH: QVQLVQSGAEVKKPGASVKVSCKASGYTFTGYYMHWVRQAPGQGLEWMGWINPNSGGTNFAQKFQGRVTMTRDTSINTAYMELSRLRSDDSAVFYCARVESKIFDIWGQGTMVTVSS
VL: B1 VL with A25T, V46L, S80P, V83I, T99K
B6: GT8-D36-2_CLK09 (antibody, V domains shown)
VH: QVQLVQSGAEVKKPGASVKVSCKASGYTFTGYYMNWVRQAPGQGLEWMGWINPNSGGTNYAQQFQGRVTMTRDTSISTAYMELSRLKSDDTAVYYCARVDGKKKTFDIWGQGTMVTVSS
VL: B1 VL with V46L, A51V, D70A, S80P, V83I, T99K
B7: GT8-D36-16_CLK09 (antibody, V domains shown)
VH: B1 VH
VL: B1 VL with V83I, T99K
B8: GT8-D36-20_CLK09 (antibody, V domains shown)
VH: B1 VH
VL: B1 VL with V46L, T72I, V83M, T99K
B9: GT8-D36-5_CLK09 (antibody, V domains shown)
VH: not shown
VL: B1 VL with A25T, V46L, S80P, V83I, T99K
B10: GT8-D36-15_CLK09 (antibody, V domains shown)
VH: B1 VH with Y32H, Y60N
VL: B1 VL with K39T, V46L, V83I, Y91F, T99K
B11: GT8-D36-17_CLK09 (antibody, V domains shown)
VH: B1 VH with T30S
VL: B1 VL with V15I, V46L, V83I, T99K
B12: GT8-D36-19_CLK09 (antibody, V domains shown)
VH: B1 VH with K12R, K46E, A61E
VL: B1 VL with V46L, V83I, T99K
B13: GT8-D36-4_CLK09 (antibody, V domains shown)
VH: not shown
VL: B1 VL with M4L, N31S, Y32S, P40T, S80P, V83I, T99K
B14: GT8-D36-6_CLK19 (antibody, V domains shown)
VH: QVQLVQSGAEVKKPGASVKVSCKASEYTFTGYYMHWVRQAPGQGLEWMGWINPNSGGTNYVQKFQDRVTMTRDTSINTAYMELSRLRSDDTAVYYCTPVLAYYRWRFDYWGQGTLVTVSS
VL: not shown
B15: g5-D78-9_CLK19 (antibody, V domains shown)
VH: QVQLVQSGAEVKKPGASVKVSCKASGYIFTDYNMHWVRQAPGQGLEWMGWINPRFGGRNIVQKFQGRVTMTRDTSISTAYMELSGLRSDDTAVYFCTPVLAPFRWPFAYWGQGTLVTVSS
VL: DIQMTQSPSSLSASVGDRVTITCQASQDINYLNWYQQKPGKAPKLLIYDASNLETGVPSRFSGSGSGTDFTFTISSLQPEDIATYYCQQYAAFGPGTKVDIK
B16: GT8-D36-18_CLK21 (antibody, V domains shown)
VH: QVQLVQSGAEVKKPGASVKVSCKTSGYTFTDYYMHWVRQAPGQGLEWMGWINPNSGGTNYAQRFQGRVTMTRDTSISTAYMELSRLRSDDTAVYYCASALRDSQPWWFDPWGQGTLVTVSS
VL: DIQMTQSPSTLSASVGDRVTITCRASQSISSWLAWYQQKPGKAPKLLIYKASSLESGVPSRFSGSGSGTEFTLTISSLQPDDFATYYCQQYDTFGGGTKVEIK
B17: CLK21 germline (GL) mAb (antibody, V domains shown)
VH: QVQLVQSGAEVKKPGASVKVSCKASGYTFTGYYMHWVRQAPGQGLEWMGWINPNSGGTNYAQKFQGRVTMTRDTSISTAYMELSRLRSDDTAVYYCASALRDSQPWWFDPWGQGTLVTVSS
VL: B16 VL with D92G
B18: GT8-D36-22_CLK21 (antibody, V domains shown)
VH: not shown
VL: B16 VL with K99R
B19: GT8-D36-8_CLK19 (antibody, V domains shown)
VH: QVQLVQSGAEVKMPGASVKVSCKASGYTFTGYYMHWVRQAPGQGLEWMGWINPNSGGTNYAQKFQGRVTMTRDTSISTAYMALNSLRSDDAAVYYCAIVLADYRWRFNYWGQGTLVTVSS
VL: not shown
B20: GT8-D36-10_CLK19 (antibody, V domains shown)
VH: QVQLVQSGAEVKKPGASVKVSCKASGYSFTGYYIHWVRQAPGQGLEWMGWTNPNSGGTNYAQKLEGRVTMTRDTSISTAYMELSRLRFDDTAVYYCALAGYRWRFDYWGQGTLVTVSS
VL: not shown

Legend:
[1] = target: eOD-GT8 (monomeric ligand) (Human immunodeficiency virus 1, …)
[2] = target: T1, eOD-GT8 (monomeric ligand) (Human immunodeficiency virus 1, …); assay: SPR; Carterra LSA; kinetics and affinity of antibody–antigen interactions, methods as in Cottrell et al. (ref. 56); who was immobilised is not told (the antigens are called ligands); values for groups are geometric means over the mAbs; settings: both partners purified
T1 construct: also called eOD-GT8 ligand; GT8-prime ligand

Binder | Kd [1] | Kd [2]
B1 | 534 nM | –
B2 | 0.14 nM | –
B3 | 6.07 nM | –
B4 | 26.9 nM | –
B5 | 0.13 nM | –
B6 | 0.997 nM | –
B7 | 37.9 nM | –
B8 | 8.37 nM | –
B9 | 1.28 nM | –
B10 | 260 nM | –
B11 | 4.09 nM | –
B12 | 0.958 nM | –
B13 | 0.0423 nM | –
B14 | 2.03 nM | –
B15 | 2.1 nM | –
B16 | 2.63 nM | –
B17 | – | 440 nM
B18 | 2.94 nM | –
B19 | 0.411 nM | –
B20 | 4.3 nM | –
